Assay results from patent publication CN116406375A (UNIV SHANGHAI TECHNOLOGY, dated 2023).

T1: HCoV-NL63刺突 (HCoV-NL63, UniProt Q6Q1S2 19-1356)
T1 construct: whole, on cells
T1 sequence: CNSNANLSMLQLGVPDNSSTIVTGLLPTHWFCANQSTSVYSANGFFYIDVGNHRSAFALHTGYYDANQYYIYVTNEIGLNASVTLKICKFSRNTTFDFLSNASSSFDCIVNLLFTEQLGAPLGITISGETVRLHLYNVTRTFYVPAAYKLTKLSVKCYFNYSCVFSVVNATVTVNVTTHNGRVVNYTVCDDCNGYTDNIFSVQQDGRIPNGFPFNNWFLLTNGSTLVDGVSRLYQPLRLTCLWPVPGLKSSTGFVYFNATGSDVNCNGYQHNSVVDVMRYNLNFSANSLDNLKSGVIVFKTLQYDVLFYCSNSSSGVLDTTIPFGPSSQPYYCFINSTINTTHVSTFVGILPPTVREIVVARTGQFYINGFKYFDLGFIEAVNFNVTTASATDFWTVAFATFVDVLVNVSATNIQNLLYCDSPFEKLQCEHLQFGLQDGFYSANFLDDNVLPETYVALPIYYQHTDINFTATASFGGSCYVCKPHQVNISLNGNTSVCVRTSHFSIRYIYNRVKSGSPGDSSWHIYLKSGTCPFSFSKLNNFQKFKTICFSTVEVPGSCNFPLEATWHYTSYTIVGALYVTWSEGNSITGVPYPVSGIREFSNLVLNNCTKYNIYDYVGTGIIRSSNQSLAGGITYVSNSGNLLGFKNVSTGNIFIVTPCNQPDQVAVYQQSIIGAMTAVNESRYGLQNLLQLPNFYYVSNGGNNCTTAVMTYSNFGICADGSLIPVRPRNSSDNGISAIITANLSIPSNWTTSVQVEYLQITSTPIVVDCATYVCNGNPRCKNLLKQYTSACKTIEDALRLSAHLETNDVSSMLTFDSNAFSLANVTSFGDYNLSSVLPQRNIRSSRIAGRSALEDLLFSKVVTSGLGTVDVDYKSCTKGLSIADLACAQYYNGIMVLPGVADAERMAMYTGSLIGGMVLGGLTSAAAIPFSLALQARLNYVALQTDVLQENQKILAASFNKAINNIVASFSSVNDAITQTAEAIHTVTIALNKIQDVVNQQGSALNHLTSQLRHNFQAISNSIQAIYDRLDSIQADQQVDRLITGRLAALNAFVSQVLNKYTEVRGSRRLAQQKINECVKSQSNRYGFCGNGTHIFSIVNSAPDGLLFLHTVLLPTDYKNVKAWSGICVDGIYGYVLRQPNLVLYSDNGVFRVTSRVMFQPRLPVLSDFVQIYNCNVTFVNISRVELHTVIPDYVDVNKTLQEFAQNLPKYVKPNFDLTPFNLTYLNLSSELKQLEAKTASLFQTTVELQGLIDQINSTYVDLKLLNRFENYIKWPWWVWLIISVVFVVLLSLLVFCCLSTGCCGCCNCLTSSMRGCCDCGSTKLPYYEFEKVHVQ

T2: HCoV-HKU1刺突 (HCoV-HKU1, UniProt Q5MQD0 13-1356)
T2 construct: whole, on cells
T2 sequence: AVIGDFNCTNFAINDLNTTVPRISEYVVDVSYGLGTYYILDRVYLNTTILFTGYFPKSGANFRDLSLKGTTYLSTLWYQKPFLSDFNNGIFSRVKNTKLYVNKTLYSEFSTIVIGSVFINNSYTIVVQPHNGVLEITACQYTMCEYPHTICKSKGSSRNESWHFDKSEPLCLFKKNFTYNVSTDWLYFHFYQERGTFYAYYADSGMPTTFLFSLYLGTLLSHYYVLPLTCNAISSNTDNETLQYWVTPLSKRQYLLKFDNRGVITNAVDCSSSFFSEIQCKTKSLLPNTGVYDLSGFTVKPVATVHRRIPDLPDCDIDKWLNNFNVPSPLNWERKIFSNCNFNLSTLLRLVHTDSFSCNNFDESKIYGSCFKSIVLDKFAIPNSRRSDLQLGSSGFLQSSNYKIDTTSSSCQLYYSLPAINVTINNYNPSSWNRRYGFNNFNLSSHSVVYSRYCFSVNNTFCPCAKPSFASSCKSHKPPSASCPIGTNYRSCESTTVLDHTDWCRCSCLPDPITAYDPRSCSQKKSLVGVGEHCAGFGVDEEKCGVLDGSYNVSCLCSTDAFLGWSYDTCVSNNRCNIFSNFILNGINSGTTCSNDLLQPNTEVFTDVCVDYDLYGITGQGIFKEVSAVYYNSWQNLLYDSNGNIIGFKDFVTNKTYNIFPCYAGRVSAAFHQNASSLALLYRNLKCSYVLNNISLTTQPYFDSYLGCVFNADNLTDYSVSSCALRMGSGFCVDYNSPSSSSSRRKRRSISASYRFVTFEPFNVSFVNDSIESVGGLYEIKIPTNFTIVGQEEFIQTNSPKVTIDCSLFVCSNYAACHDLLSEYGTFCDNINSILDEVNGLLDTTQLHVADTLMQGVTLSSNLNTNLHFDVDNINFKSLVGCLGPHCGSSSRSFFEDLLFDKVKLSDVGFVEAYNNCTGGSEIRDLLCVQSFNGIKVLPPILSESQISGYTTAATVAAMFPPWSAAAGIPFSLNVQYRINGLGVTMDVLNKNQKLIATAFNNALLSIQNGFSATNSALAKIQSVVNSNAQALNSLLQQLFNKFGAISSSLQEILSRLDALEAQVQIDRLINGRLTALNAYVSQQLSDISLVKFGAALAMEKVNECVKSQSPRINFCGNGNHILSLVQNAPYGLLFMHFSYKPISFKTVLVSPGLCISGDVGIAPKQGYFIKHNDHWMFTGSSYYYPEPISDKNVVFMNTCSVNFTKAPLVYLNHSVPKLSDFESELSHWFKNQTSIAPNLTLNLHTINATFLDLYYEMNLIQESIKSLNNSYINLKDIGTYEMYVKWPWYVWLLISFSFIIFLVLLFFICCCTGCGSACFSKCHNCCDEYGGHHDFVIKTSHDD

T3: HCoV-229E刺突 (HCoV-229E, UniProt P15423 16-1173)
T3 construct: whole, on cells
T3 sequence: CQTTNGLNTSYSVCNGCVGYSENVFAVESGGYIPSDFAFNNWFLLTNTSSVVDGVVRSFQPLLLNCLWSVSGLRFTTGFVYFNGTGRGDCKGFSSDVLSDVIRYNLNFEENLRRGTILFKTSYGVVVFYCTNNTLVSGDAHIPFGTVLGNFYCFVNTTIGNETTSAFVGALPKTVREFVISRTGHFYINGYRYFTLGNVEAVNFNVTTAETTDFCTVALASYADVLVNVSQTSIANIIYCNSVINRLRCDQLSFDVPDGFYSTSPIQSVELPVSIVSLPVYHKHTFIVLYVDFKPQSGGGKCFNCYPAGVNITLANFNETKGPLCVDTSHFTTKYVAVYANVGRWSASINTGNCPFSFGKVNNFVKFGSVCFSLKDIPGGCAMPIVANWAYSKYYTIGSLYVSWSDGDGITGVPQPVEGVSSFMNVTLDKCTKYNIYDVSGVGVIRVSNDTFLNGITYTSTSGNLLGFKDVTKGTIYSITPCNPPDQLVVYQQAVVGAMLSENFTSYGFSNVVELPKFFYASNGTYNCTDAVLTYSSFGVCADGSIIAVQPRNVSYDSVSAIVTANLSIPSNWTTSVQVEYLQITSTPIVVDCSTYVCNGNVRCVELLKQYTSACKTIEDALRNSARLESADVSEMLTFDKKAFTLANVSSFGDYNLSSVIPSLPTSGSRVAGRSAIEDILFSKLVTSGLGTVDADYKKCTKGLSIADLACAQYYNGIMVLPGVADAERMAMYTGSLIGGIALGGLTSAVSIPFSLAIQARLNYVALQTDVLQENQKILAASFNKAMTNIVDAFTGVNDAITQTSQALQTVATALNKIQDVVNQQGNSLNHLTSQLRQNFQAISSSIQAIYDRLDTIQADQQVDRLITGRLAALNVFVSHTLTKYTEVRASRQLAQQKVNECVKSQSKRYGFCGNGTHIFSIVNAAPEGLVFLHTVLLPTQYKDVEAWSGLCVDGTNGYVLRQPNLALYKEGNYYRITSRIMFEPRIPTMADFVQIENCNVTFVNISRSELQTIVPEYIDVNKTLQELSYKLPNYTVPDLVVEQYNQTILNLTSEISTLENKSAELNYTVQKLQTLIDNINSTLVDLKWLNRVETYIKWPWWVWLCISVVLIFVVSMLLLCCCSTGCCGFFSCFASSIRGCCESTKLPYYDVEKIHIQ

T4: HCoV-OC43刺突 (HCoV-OC43, UniProt P36334 14-1353)
T4 construct: whole, on cells
T4 sequence: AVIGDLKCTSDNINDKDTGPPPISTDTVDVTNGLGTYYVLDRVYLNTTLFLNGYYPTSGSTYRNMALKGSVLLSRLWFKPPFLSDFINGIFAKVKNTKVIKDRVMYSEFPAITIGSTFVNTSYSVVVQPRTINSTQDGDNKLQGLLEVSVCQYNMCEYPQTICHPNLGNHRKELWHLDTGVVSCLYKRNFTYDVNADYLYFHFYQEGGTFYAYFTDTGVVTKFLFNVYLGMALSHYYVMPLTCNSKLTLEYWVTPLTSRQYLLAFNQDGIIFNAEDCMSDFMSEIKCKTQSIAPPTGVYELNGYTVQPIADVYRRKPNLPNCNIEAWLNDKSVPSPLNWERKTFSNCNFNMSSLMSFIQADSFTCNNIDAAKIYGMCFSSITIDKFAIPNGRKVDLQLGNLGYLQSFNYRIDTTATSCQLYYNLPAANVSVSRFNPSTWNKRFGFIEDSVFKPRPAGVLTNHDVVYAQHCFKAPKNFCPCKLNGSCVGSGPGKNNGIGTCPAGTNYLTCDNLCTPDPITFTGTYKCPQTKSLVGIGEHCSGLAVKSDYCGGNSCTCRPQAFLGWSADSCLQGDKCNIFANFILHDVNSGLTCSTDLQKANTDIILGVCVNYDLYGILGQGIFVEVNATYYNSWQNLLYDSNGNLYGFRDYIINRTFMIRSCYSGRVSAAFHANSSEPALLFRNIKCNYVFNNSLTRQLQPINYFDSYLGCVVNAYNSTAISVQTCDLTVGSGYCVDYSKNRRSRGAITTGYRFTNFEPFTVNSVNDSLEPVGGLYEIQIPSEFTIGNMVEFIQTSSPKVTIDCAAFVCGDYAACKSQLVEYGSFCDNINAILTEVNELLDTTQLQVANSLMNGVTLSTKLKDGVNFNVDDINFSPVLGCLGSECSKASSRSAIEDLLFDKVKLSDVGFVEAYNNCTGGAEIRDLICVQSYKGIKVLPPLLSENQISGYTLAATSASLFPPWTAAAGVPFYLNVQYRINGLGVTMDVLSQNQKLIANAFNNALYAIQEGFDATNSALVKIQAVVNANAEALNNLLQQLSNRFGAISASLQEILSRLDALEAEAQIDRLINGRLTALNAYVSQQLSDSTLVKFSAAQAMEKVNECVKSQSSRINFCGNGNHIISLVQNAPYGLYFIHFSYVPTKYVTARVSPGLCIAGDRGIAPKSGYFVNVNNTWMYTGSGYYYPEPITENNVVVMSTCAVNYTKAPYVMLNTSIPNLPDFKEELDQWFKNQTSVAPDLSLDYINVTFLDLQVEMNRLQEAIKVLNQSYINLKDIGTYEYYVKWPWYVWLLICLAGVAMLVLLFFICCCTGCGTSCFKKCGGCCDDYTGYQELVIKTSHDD

B1: S-D4 (antibody, V domains shown)
VH: QVQLQESGGGVVQPGRSLRLSCEVSGFTFSDYGMHWVRQAPGKGLEWVAVIWSEGSTEYYADSVKGRFTISRDNSKDTLYLQMNSLRAEDTAVYYCARPGYPTSTDRSPAAAGARQYYYYGMDVWGQGTTVTVSS
VL: NFMLTQPHSVSESPGKTVTISCTRSGGSGAANYVQWYQQRPGSSPTTLIYEDSRRPPGVPDRFSGSVDTSSNSASLTISGLQTEDEADYYCQSYDSSNHVVFGGGTKLTVLG
notes: also called S-D4二聚体; S-D4 IgG4
B2: S-E6 (antibody, V domains shown)
VH: QVTLRESGPGLVKPSETLSLTCAVSGGSLSSVNYYWSWIRQHPGKGLEWIGYIYYSGSTNYNPSLKSRVTMSLDTSKNQFSLKLSSVTAADTAVYYCATPGAIMGALHIWGQGTLVTVSS
VL: QAVLTQPSSASSTPGQRVIISCSGSSSNIGSNTVSWYQQVPGAAPKLLIYFDYRRPSGVPDRFSGTRSGTSASLGISGLQSEDEADYYCAAWDDSLSAWVFGRGTKLTVLG
notes: also called S-E6二聚体; 二聚体S-E6
B3: S-B8 (antibody, V domains shown)
VH: QVQLVQSGGGLIQPGGSLRLSCAASGFTVSLSHMNWVRQAPGKGLEWVSITYGDGNSDYADSVKGRFTISRDNSKNTLYLQMNSLRAEDTAVYYCAREYYYGMDVWGQGTTVTVSS
VL: not shown
notes: also called S-B8二聚体

How the values were obtained:
[1] = target: 真SARS-CoV-2病毒 Victoria/01/2020 的刺突 (SARS-CoV-2); test: cell-based or functional assay
HCoV-NL63刺突 = target: T1, HCoV-NL63刺突; test: FACS on transfected HEK293T cells
HCoV-HKU1刺突 = target: T2, HCoV-HKU1刺突; test: FACS on transfected HEK293T cells
HCoV-229E刺突 = target: T3, HCoV-229E刺突; test: FACS on transfected HEK293T cells
HCoV-OC43刺突 = target: T4, HCoV-OC43刺突; test: FACS on transfected HEK293T cells

| Binder | NT50, 真病毒中和 (Victoria/01/2020) [1] | binding result (HCoV-NL63刺突) | binding result (HCoV-HKU1刺突) | binding result (HCoV-229E刺突) | binding result (HCoV-OC43刺突) |
| --- | --- | --- | --- | --- | --- |
| B1 | 2.04 nM | no binding | no binding | no binding | no binding |
| B2 | 0.15 nM | no binding | no binding | no binding | no binding |
| B3 | 0.88 nM | no binding | no binding | no binding | no binding |
